The values that follow come from patent publication US20250000946A1 (WUXI BIOLOGICS IRELAND, published 2025).

Experiment [1] has as its target T1, Human IL-2Rβ/γ (intermediate affinity IL-2 receptor) (human, UniProt P14784 27-551; P31785 23-369).
T1 construct: whole, on cells; also called IL-2Rβ/γc; IL-2Rβ (CD122) and γ (CD132)
T1 sequence (looked up) 1: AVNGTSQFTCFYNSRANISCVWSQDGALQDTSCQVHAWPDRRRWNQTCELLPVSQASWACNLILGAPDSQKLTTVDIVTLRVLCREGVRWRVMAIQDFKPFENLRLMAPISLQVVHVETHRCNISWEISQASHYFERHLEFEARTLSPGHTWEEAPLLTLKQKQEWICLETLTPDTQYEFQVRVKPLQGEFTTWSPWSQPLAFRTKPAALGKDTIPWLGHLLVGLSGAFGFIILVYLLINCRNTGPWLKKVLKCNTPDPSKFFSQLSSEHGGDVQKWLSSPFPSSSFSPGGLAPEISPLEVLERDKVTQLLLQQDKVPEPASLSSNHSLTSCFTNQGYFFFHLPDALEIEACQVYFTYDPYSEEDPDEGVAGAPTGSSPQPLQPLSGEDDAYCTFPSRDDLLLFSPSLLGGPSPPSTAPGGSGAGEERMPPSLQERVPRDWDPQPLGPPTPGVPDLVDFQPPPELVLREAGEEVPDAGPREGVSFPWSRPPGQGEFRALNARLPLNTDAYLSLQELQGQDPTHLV
T1 sequence (looked up) 2: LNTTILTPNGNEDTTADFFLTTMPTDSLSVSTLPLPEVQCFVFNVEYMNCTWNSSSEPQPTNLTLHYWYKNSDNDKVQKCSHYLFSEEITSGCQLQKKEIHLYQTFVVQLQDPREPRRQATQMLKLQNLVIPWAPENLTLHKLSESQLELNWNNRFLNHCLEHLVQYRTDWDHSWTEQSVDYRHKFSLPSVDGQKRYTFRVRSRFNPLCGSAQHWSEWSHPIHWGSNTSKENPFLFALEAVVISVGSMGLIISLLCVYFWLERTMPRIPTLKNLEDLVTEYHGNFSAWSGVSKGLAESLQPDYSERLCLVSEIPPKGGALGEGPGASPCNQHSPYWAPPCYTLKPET
Briefly: FACS, HH cells; EC50 fold vs T2U0.E44-1. The procedure:
(§1) Human cutaneous T cell lymphoma HH cells, malignant non-Hodgkin's lymphoma NK92 cells and cutaneous T cell lymphoma MJ20 cells were used for binding assay. They both constitutively express IL-2Rβ (CD122) and […] (CD132), and NK92 and MJ20 also expresses IL-2Rα (CD25). HH, NK92 and MJ20 cells were cultured following ATCC guidance, then transferred to a 96-plate for binding analysis. Cells were incubated with IL-2/Fc fusion proteins at the indicated concentrations for 30 min at 4° C. to avoid internalization. Binding was detected by 2nd antibody of PE-anti-human Fc at 4° C. for another 30 min. The median fluorescence intensity (MFI) on HH and NK92 cells was measured using FACS.
For orientation: Flow cytometry measures light scatter and fluorescence of single cells or particles in a stream.

The target of experiment [2] is T1, Human IL-2Rβ/γ (intermediate affinity …). As to the kind of experiment: FACS, HH cells; EC50 fold vs T2U0.E44-1. As to the method:
as §1
This is another data set of the same source.

Experiment [3] addresses T2, Human IL-2Rα/β/γ complex (high affinity IL-2 receptor) (human, UniProt P01589 22-272; P14784 27-551; P31785 23-369).
T2 sequence (looked up) 1: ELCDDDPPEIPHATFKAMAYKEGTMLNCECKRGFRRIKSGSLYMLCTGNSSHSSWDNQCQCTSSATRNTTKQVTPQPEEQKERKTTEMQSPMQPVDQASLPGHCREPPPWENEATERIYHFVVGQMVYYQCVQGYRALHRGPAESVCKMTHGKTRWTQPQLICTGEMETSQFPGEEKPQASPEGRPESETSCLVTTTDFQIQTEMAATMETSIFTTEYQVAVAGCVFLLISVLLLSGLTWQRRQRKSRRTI
T2 sequence (looked up) 2: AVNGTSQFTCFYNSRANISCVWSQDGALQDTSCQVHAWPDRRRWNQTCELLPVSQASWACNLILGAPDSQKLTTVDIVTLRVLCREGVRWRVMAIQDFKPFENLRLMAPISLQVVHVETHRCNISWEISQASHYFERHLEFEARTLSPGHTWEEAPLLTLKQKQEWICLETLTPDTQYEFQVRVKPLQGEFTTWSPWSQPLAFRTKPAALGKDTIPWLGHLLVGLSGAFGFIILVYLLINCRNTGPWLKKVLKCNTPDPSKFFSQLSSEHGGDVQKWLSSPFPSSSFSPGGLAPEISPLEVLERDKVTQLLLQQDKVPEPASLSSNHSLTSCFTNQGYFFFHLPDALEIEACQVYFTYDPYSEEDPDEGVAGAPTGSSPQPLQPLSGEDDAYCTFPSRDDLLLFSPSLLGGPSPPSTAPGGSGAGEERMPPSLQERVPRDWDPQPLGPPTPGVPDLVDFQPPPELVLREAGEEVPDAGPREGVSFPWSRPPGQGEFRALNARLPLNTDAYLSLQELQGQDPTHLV
T2 sequence (looked up) 3: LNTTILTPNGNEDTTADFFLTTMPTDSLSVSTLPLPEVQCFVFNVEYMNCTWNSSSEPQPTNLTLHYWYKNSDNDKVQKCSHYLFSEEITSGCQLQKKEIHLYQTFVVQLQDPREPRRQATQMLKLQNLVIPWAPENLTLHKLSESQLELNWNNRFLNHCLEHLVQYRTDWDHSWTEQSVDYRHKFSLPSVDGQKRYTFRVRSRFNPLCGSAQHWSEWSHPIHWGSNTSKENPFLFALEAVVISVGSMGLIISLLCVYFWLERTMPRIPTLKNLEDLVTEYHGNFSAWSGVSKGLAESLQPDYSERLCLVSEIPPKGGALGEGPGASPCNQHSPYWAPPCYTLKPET
As to the kind of experiment: cell-based or functional assay.

The target in experiment [4] is T1, Human IL-2Rβ/γ (intermediate affinity …). Briefly: cell-based or functional assay.
For experiment [5] the target is unchanged. Briefly: FACS, HH cells. The procedure: as §1
Experiment [6] has as its target T2, Human IL-2Rα/β/γ complex (high affinity …). As to the kind of experiment: FACS, NK92 cells. As to the method: as §1
Experiment [7] addresses T1, Human IL-2Rβ/γ (intermediate affinity …). As to the kind of experiment: FACS, HH cells. The procedure:
as §1
The source holds these as a separate data set.

In experiment [8] the target is T2, Human IL-2Rα/β/γ complex (high affinity …). As to the kind of experiment: FACS, MJ20 cells. As to the method:
as §1
(§2) Affinity of IL-2 variants to IL-2Rα/β/γ supported the same results (FIG. 8 and Table 7). […] And T2U0.E44-26, T2U0.E44-27, T2U0.E44-29 and T2U0.E44-30 induced hundreds to thousands affinity reduction in Treg compared to T2U0.E44-1. Binding curves in MJ20 cells (IL-2Rα/β/γ) also achieved similar trend (FIG. 8b). As a result, the method of C-terminal truncation and substitution of 129 was available to achieve IL-2Rβγ attenuated IL-2 variants.

Experiment [9] shares this target. As to the kind of experiment: FACS, NK92 cells; EC50 fold vs T2U0.E44-1. The procedure:
as §1

Experiment [10] shares this target. As to the kind of experiment: cell-based or functional assay. The source holds these as a separate data set.
The target of experiment [11] is T1, Human IL-2Rβ/γ (intermediate affinity …). Briefly: cell-based or functional assay. The source holds these as a separate data set.
Experiment [12] has as its target T2, Human IL-2Rα/β/γ complex (high affinity …). As to the kind of experiment: FACS, MJ20 cells; EC50 fold vs T2U0.E44-1. The procedure: as §1, §2
The target is the same in experiment [13]. As to the kind of experiment: cell-based or functional assay. The source holds these as a separate data set.
The target of experiment [14] is T1, Human IL-2Rβ/γ (intermediate affinity …). As to the kind of experiment: cell-based or functional assay. This is another data set of the same source.
Experiment [15] concerns the target T2, Human IL-2Rα/β/γ complex (high affinity …). As to the kind of experiment: FACS, MJ20 cells. As to the method: as §1
This is another data set of the same source.

Experiment [16] shares this target. As to the kind of experiment: FACS, MJ20 cells; EC50 fold vs T2U0.E44-1. As to the method:
as §1
This is another data set of the same source.

Like-named read-outs stand apart in the source and are kept apart here.

B1: W3XX115-T2U0.E44-6.uIgG4V1 (Fc fusion)
chain: APTSSSTKKTQLQLEHLLLDLQMILNGINNYKNPKLTRMLTFKFYMPKKATELKHLQCLEEELKPLEEVLNLAQSKNFHLRPRDLISNINVIVLELKGSETTFMCEYADETATIVEFLNRWITFCQSIIESKYGPPCPPCPAPEFLGGPSVFLFPPKPKDTLMISRTPEVTCVVVDVSQEDPEVQFNWYVDGVEVHNAKTKPREEQFNSTYRVVSVLTVLHQDWLNGKEYKCKVSNKGLPSSIEKTISKAKGQPREPQVYTLPPCQEEMTKNQVSLWCLVKGFYPSDIAVEWESNGQPENNYKTTPPVLDSDGSFFLYSRLTVDKSRWQEGNVFSCSVMHEALHNHYTQKSLSLSLG
heavy: EIQLQQSGPELVKPGASVKVSCKASGYSFTDYNMYWVKQSHGESLEWIGYIDPYNGGTRYNQKFKGKATLTVDKSSSTAFMHLNSLTSEDSAVYYCARNGHWDGAWFAYWGQGTLVTVSAASTKGPSVFPLAPCSRSTSESTAALGCLVKDYFPEPVTVSWNSGALTSGVHTFPAVLQSSGLYSLSSVVTVPSSSLGTKTYTCNVDHKPSNTKVDKRVESKYGPPCPPCPAPEFLGGPSVFLFPPKPKDTLMISRTPEVTCVVVDVSQEDPEVQFNWYVDGVEVHNAKTKPREEQFNSTYRVVSVLTVLHQDWLNGKEYKCKVSNKGLPSSIEKTISKAKGQPREPQVCTLPPSQEEMTKNQVSLSCAVKGFYPSDIAVEWESNGQPENNYKTTPPVLDSDGSFFLVSRLTVDKSRWQEGNVFSCSVMHEALHNHYTQKSLSLSLG
light: DIQMNQSPSSLSASLGDTITITCHASQNINVWLSWYQQKPGNIPKLLIYKASNLHTGVPSRFSGSRSGTGFTLTISSLQPEDIATYYCHQGQSYPFTFGSGTKLEIKRTVAAPSVFIFPPSDEQLKSGTASVVCLLNNFYPREAKVQWKVDNALQSGNSQESVTEQDSKDSTYSLSSTLTLSKADYEKHKVYACEVTHQGLSSPVTKSFNRGEC
notes: IL-2 with C-terminal 4 aa (STLT) deleted; E44 format, IgG4
One may read the EC50 as the concentration giving half of the maximal effect. A low value points to an effect from little substance. As to B1, the Affinity reduction came to 14.1 fold in [1], 9.9 fold in experiment [2], 2.48 fold in [9] and 4 fold in [12]. Also, the entries for the “Potency in human Treg EC50” value in [3] and in experiment [10] were 1.51 nM and 0.032 nM, respectively. The figures for the “Potency reduction (Treg)” value in experiment [3] and in experiment [10] were 58.4 fold and 12.6 fold, respectively. The “Potency in human CD8+ T EC50” value in experiment [4] was 175 nM; in experiment [11] it was 360 nM. Also, the “Potency reduction (CD8+ T)” value is 18.3 fold in experiment [4] and 18 fold in [11]. In addition, the concentration giving a half-maximal response (EC50) came to 437 nM in [5], 13.7 nM in experiment [6], 533 nM in experiment [7] and 56.6 nM in [8].

B2: W3XX115-T2U0.E44-37.uIgG4V322 (Fc fusion)
chain: APTSSSTKKTQLQLEHLLLDLQMILNGINNYKNPKLTRMLTFKFYMPKKATELKHLQCLEEELKPLEEVLNLAQSKNFHLRPRDLISNINVIVLELKGSETTFMCEYADETATIVEFLNRWITFCQNISESKYGPPCPPCPAPEAAGGPSVFLFPPKPKDTLMISRTPEVTCVVVDVSQEDPEVQFNWYVDGVEVHNAKTKPREEQFNSTYRVVSVLTVLHQDWLNGKEYKCKVSNKGLPSSIEKTISKAKGQPREPQVYTLPPCQEEMTKNQVSLWCLVKGFYPSDIAVEWESNGQPENNYKTTPPVLDSDGSFFLYSRLTVDKSRWQEGNVFSCSVMHEALHNHYTQKSLSLSLG
heavy: EIQLQQSGPELVKPGASVKVSCKASGYSFTDYNMYWVKQSHGESLEWIGYIDPYNGGTRYNQKFKGKATLTVDKSSSTAFMHLNSLTSEDSAVYYCARNGHWDGAWFAYWGQGTLVTVSAASTKGPSVFPLAPCSRSTSESTAALGCLVKDYFPEPVTVSWNSGALTSGVHTFPAVLQSSGLYSLSSVVTVPSSSLGTKTYTCNVDHKPSNTKVDKRVESKYGPPCPPCPAPEAAGGPSVFLFPPKPKDTLMISRTPEVTCVVVDVSQEDPEVQFNWYVDGVEVHNAKTKPREEQFNSTYRVVSVLTVLHQDWLNGKEYKCKVSNKGLPSSIEKTISKAKGQPREPQVCTLPPSQEEMTKNQVSLSCAVKGFYPSDIAVEWESNGQPENNYKTTPPVLDSDGSFFLVSRLTVDKSRWQEGNVFSCSVMHEALHNHYTQKSLSLSLG
light: DIQMNQSPSSLSASLGDTITITCHASQNINVWLSWYQQKPGNIPKLLIYKASNLHTGVPSRFSGSRSGTGFTLTISSLQPEDIATYYCHQGQSYPFTFGSGTKLEIKRTVAAPSVFIFPPSDEQLKSGTASVVCLLNNFYPREAKVQWKVDNALQSGNSQESVTEQDSKDSTYSLSSTLTLSKADYEKHKVYACEVTHQGLSSPVTKSFNRGEC
notes: IL-2 del STLT, S127N and I129S (glycosylation design); E44 format, IgG4 FALA
B2: the Affinity reduction in experiment [1] stood at 190000 fold. In experiment [13], the “Potency in human Treg EC50” value was determined as 8 nM and the “Potency reduction (Treg)” value came out at 4060 fold. For the same molecule, the “Potency in human CD8+ T EC50” value in experiment [14] is around 17.6 nM. The molecule also showed an EC50 in [15] of 87.7 nM. The molecule further displayed an Affinity reduction in [16] of 2.1 fold.
